Data set [1] concerns the molecule itself. Description: MST; Alexa Fluor 488 labelled protein kept constant (SAMwt 70 nM, SAMlg 60 nM), total protein varied (SAMwt 1.1-824 µM, SAMlg 0.2-250 µM); standard buffer pH 6.4, room temperature; fit to a monomer-dimer equilibrium; dimer to monomers.
Data set [2] concerns the molecule itself. Description: AUC; sedimentation equilibrium, 30 °C, standard buffer (50 mM potassium phosphate, 20 mM NaCl, 0.1 mM EDTA, pH 6.4) without NaN3; three loading concentrations (SAMwt 60, 120, 300 µM; SAMlg 31, 64, 98 µM) at several speeds; global fit to a monomer-dimer equilibrium; dimer to monomers.

Broadly, the Kd is the equilibrium constant for the complex coming apart. What is called stoichiometry N is a count of units in the complex or per binding partner.

B1: SLy1 SAM domain construct SAMlg (SLy1 residues G249-E321 preceded by a glycine-proline tag) (domain or fragment, mouse)
chain: GPGKRPKPKTLHELLERIGLEEHTSTLLLNGYQTLEDFKELRETHLNELNIMDPQHRAKLLTAAELLLDYDTGSE
notes: glycine-proline left from the tag after PreScission cleavage; SLy1 (SASH3), murine, UniProtKB Q8K352, residues 249-321; 75 residues; In MST 60 nM of the protein carried amine-reactive Alexa Fluor 488; For DOSY the protein was 15N labelled; also called N-terminally extended SLy1 SAM domain construct; source: E. coli BL21(DE3), GST fusion, purified (Glutathione Sepharose, PreScission cleavage, …)
Turning to B1, the Kd in data set [1] came out at 5.4 ± 1.4 µM. Further, in data set [2], the Kd stood at 2200 nM and the “stoichiometry N” value was 2.
